According to patent publication US20250314646, “SYSTEMS AND METHODS FOR ANALYTE DETECTION IN BIOLOGICAL SOLUTIONS” (eGlint, Inc., published 2025):

B1: 41T aptamer (solution, FIG. 4A) (ssDNA)
DNA: TACTCAGGGCACTGCAAGCAATTGTGGTCCCAATGGGCTGAGTA
B2: 41T aptamer (surface-immobilized, FIG. 4B) (ssDNA)
DNA: TTTTTTACTCAGGGCACTGCAAGCAATTGTGGTCCCAATGGGCTGAGTA
modifications: 5' DBCO-TEG via five-thymidine linker, thymine-linked Black Hole Quencher 2

How the values were obtained:
[1] = target: T1, PDGF-BB (UniProt P01127 P01127:82-190); test: fluorescence thermal melt in solution; Tm about 55 C unbound to about 65 C bound; 1x PBS, 1 mM MgCl2, 0.1 mg/ml BSA; details: chain copies: 2 (homodimer, inferred); label: 5' fluorescein, 3' Black Hole Quencher 1
T1 sequence (P01127 82-190, one chain of several): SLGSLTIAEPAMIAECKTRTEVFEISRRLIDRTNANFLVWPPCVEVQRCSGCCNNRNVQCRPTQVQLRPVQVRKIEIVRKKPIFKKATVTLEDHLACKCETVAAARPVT
Procedure: In one representative experiment, aptamer comprising a competent binding state and a dye pair (fluoresceine and black hole quencher) was measured for their persistence in the changed environment of temperature as described herein. […] PDGF-BB, bovine serum albumine (BSA), magnesium chrolide, and phosphate buffered saline (PBS) all other buffers were ordered from Sigma-Millipore. 41T aptamer at a concentration of either 316 nM, or 100 nM, or 31.6 nM, or 10 nM were mixed with variable concentrations PDGF-BB (from […] dilution factor) in 1× PBS containing 1 mM MgCl₂, and 0.1 mg/ml BSA on white 384 well PCR plate (BioRad) and subjected to the following thermal protocol on BioRad CFX384 qPCR instrument: lid at 95° C., melting curve step from 30° C. to 80° C. with images (FAM/SYBR channel) every 0.5° C., 10 seconds per step. FIG. 5 presents melting curves (left panels) and the first derivative (right panels) of thermal titration experiments. To estimate the relative populations of free aptamers and aptamers bound to the target (% bound), the areas under the curve of the first derivative (dRFU/dT) were integrated for both unbound (left peak with Tₘ˜55° C.) and bound (right peak with Tₘ˜65° C.) peaks. % bound as a function of the target concentration is presented as a dose response in FIG. 6.

[2] = target: PDGF-AA (UniProt P04085 P04085:87-211); test: surface thermal melt, 75-300 nM PDGF-AA; no binding and no dose response; 0.75 mg/mL HSA, 40% DMSO; details: tags: R&D Systems; chain copies: 2 (homodimer, inferred); label: 3' Cy3
Procedure: (§1) The solid support consisted of coated ITO glass slides functionalized with azido groups (Sikemia, Grabels, France) to form a covalent bond between the DBCO-labeled aptamer and the surface. PDGF-BB and PDGF-AA were obtained from R&D Systems (Minneapolis, USA). Human serum albumine (HSA), phosphate buffered saline (PBS) and all other reagents were ordered from Sigma-Millipore. The aptamer was covalently linked to the solid support by spotting 4.5 μL of the 0.25 uM aptamer solution in 1× PBS buffer. The spots were incubated for 10 minutes to allow for surface immobilization and washed with 1× PBS buffer. Solutions with a variable amount of PDGF-BB or PDGF-AA (630 nM to 2 nM 3.16× dilution series or 300 nM to 75 nM 2× dilution series, respectively) and containing 0.75 mg/mL. HSA, 40% DMSO (v/v) were applied to the surface coated with the aptamers and incubated for 5 minutes at room temperature. The temperature was increased to 45° C. by placing the slide on a heating element. The change in fluorescence intensity of the modified aptamer was as a function of temperature was monitored by fluorescence microscope coupled to a CMOS sensor. FIGS. 9A and 10 presents normalized first derivative of the melting curves for PDGF-BB or PDGF-AA titration experiments, respectively. […]

[3] = target: T1, PDGF-BB; test: surface thermal melt; Tm about 32 C unbound to about 42 C bound; 0.75 mg/mL HSA, 40% DMSO; also bound peak about 55 C with 100 nM in human plasma without DMSO; details: chain copies: 2 (homodimer, inferred); label: 3' Cy3
Procedure: as §1, with “PDGF-BB” for “The solid support consisted of coated ITO glass slides functionalized with azido groups (Sikemia, Grabels, France) to form a covalent bond between the DBCO-labeled aptamer and the surface. PDGF-BB”

Binder | binding result [1] | binding result [2] | binding result [3]
B1 | binds | – | –
B2 | – | no binding | binds
